Laboratory results as given in US20140370037A1 (published 2014).
Numbering of substitutions follows the chain as printed.

T1: human DLL3 antigen (human, UniProt Q9NYJ7 27-492, limits assumed)
T1 construct: also called immobilized human DLL3; recombinant human DLL3
T1 sequence (looked up): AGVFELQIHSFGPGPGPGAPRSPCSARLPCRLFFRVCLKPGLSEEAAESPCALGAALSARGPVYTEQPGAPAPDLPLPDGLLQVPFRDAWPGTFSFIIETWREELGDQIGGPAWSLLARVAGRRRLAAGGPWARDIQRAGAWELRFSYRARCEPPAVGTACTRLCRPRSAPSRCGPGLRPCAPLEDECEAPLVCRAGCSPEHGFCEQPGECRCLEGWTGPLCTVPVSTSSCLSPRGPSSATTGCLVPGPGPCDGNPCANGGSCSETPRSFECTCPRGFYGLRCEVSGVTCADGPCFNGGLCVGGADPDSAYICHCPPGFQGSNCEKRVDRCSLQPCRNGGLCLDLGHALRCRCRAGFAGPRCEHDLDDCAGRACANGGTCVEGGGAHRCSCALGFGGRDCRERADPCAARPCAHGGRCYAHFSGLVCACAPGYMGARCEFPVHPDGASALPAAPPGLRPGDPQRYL

B1: SC16.47 (antibody, V domains shown)
VH: EVQLQQSGPELVKPGASVKISCKASGYSFSRFYMHWVKQSPENSLEWIGEINPSTGGTSYNQKFKGKATLTVDKSSSTAYMQLKSLTSEESAVYYCTRGYGSNCYFDVWGAGTTVTVST
VL: DVVLTQSPLSLPVNIGDQASISCKSTKSLLNSDGFTYLDWYLQRPGQSPQFLIYLVSNRFSGVPDRFSGSGSGTDFTLKISRVEAEDLGVYYCFQSNYLPLTFGAGTKLELR
notes: murine mAb
B2: SC16.22 (antibody, V domains shown)
VH: QVQLQQPGAELVKPGASVKLSCKASGYTFTTYWMHWVKQRPGQGLEWIGEIDPSDSYTYYNQKFKGKATLTVDKSSSTAYMQLSSLTSEDSAVYYCARGDYGNPYAMDYWGQGSSVTVSS
VL: DIQMTQTTSSLSASLGDRVTISCRASQDIKNYLNWYQQKPDGTVKPLIYYTSRVHSGVPSRFSGSGSGTDYSLTISNLEQEDIATYFCQQGYTLPFTFGSGTKLE
notes: murine mAb
B3: SC16.5 (antibody, V domains shown)
VH: QVTLKESGPGILQPSQTLSLTCSFSGFSLSTSGMGVGWIRQPSGEGLEWLADIWWDDNKYYNPSLKSRLTISKDTSSNQVFLKITSVDTADTATYYCARRVNYVYDPYYAMDYWGQGTSVTVSS
VL: QIVLTQSPAIMSASPGEKVTMTCSASSSVSYMHWYQQKSGTSPKRWIYDTSKLASGVPARFSGSGSGTSYSLTISSMEAEDAATYYCQQWTRNPLTFGAGTKLELK
notes: murine mAb
B4: SC16.25 (antibody, V domains shown)
VH: B3 VH with A51T, K83N, V104Y
VL: B3 VL with T50S, T91S, R92S
notes: murine mAb
B5: SC16.36 (antibody, V domains shown)
VH: QVQLQQSGAELAKPGASVKMSCKASGYTFTTYWMHWVKQRPGQGLEWIGYINPSSGYTEYNQKFKDKATLTADKSSSTAYMQLSSLTSEDSSVYYCARKGSNRGFAYWGQGTLVTVS
VL: ETTVTQSPASLSVTTGEKVTIRCITTPDIDDDMNWYQQKPGEPPNLLISEGNSLRPGVPSRFSSSGYGTNFVFTIENTLSEDVADYYCLQSDNMPFTFGSGTKLEIK
notes: murine mAb
B6: SC16.20 (antibody, V domains shown)
VH: QVQLQQSGTELVRPGTSVRVSCKASGYAFGNHLIEWVKQRPGQGLEWIGVINPGTGGTHYNEKFKDKARLTADKSSNTAYMHLNSLTSDDSAVYFCARSPYDYHEGAMDYWGQGTSVTVSS
VL: EIQMTQSPSSMSASLGDRITITCQATQDIVKNLNWYQQKPGKPPSFLIYYATELAEGVPSRFSGSGSGSDYSLTIRNLESEDFADHYCLQFYEFPFTFGAGTKLELK
notes: murine mAb
B7: SC16.45 (antibody, V domains shown)
VH: QVQLQQSGADLVRPGTSVKVSCKASGYSFTNYLIEWVKQRPGQGLEWIGVINPGSGGTHYNEKFKDKAVLTADKSSTTAHMQLSSLTSDDSAVYFCARSPYDYNDGAMDYWGQGTSVTVSS
VL: B6 VL with S60A, R76S, H86Y, Y87H
notes: murine mAb
B8: SC16.38 (antibody, V domains shown)
VH: EVQLQQSGAELVKPGASVKLSCTVSGFNIKDTYIHWVKQRPEQGLEWIGRIDPANGNTKYDPKFQGKATITADTSSNTAYLQLSSLTSEDTAVYYCARPTGYFEYWGQGTTLTVSS
VL: QIVLTQSPAIMSASPGEKVTMTCSASSSINYMHWYQQKPGTSPKRWIYDTSKLASGVPARFSGSGSGTSYSLTISSMEAEDAATYYCHQRSTWTFGGGTKLEIK
notes: murine mAb
B9: SC16.4 (antibody, V domains shown)
VH: QIQLVQSGPELKKPGETVKISCKASGYTFTDYSMHWVKQAPGKGLKWMGWINTETGEPGYADDFKGRFAFSLETSASTAYLQINNLKNEDTATYFCARYDGYAMDYWGQGTSVTVSS
VL: DIQMTQTTSSLSASLGDRVTISCRASQDISNYLNWYQQKPDGTVKLLIYYTSRLHSGVPSRFSGSGSGTDYSLTISNLELEDIATYFCQQGDMLPWTFGGGTKLEIK
notes: murine mAb; also called mAb SC16.4
B10: SC16.35 (antibody, V domains shown)
VH: DVQLQESGPGLVKPSQSLSLTCTVTGYSITSDYAWNWIRQFPGNKLEWMGYISYSGSTSYNPSLKSRISITRDTSKNQFFLQLNSVTTEDTATYYCARFYYGSSYAMDYWGQGTSVTVSS
VL: B9 VL with L80Q, D92N, M93T, W96Y
notes: murine mAb
B11: SC16.19 (antibody, V domains shown)
VH: EVQLQQSGAELVRPGASVKLSCTASGFNIKDSLLHWVKQRPEKGLEWIGWIDPEDGETKYAPNFQDKATITTDSSSNTAYLQLISLTSVDTAIYYCAYGNYVRHFDYWGQGTTLTVSS
VL: DIQMTQSPSSLSASLGGKVTFTCKASQDIHKYVAWYQHKPGKGPRLLIHYTSTLQPGISSRFSGSGSGRDYSFSISNLEPEDIATYYCLQYNNLYTFGGGTKLEIKR
notes: murine mAb
B12: SC16.42 (antibody, V domains shown)
VH: QIQLVQSGPELKKPGETVKISCKASGYTFTTAGMQWVQKMPGKGFKWIGWINTHSGEPKYADDFKGRFAFSLETSASTAYLQISNLKDEDTATFFCAPLWSDSSFAYWGQGTLVTVSA
VL: DVLMTQSPLSLSVSLGDQASISCRSSQNIVHSDRYTYLEWYLQKPGQSPKLLIYGVSNRFSGVPDRFSGSGSGTDFTLKISRVEAEDMGVYYCFQGTHVPYTFGGGTKLEIK
notes: murine mAb
B13: SC16.34 (antibody, V domains shown)
VH: QIQLVQSGPELKRPGETVKISCKASGYTFTNYGMNWVKQAPGKGLKWMGWINTYTGDPTYADDFKGRFAFSLETSASTAYLQINNLKNEDTATYFCARIGGNSPSDYWGQGTSLTVSS
VL: SIVMTQTPKFLLVSAGDRVTITCKASQSVSNDVAWYQQKPGQSPKLLIYYASNRYSGVPDRFTGSGYGTDFTFTISTVQAEDLAVYFCQQDYSSPWTFGGGTKLEIK
notes: murine mAb
B14: SC16.49 (antibody, V domains shown)
VH: QVQLQQSGPELVKPGTLVKISCKASGYTFTSYDINWVKQRPGQGLEWIGWIYPGDGNTKYSEKFKGKATLTADKSSSTAYMQLTSLTSENSAVYFCARDYDYPFAYWGQGTLVTVSA
VL: DIKMTQSPSSMYASLGERVTITCKASQDINSYLSWFQQKPGKSPKTLIYRANRLVDGVPSRFSGSGSGQDYSLTITSLEYEDMGIYYCLQYDEFPLTFGAGTKLELK
notes: murine mAb
B15: SC16.21 (antibody, V domains shown)
VH: QVQLQQSGPELVKPGASVKISCKASGYAFSSSWMNWVKQRPGKGLEWIGRIYPGDGDTNYNGKFKGKATLTADKSSSTAYMQLSSLTSEDSAVYFCAMGIYNYDGSRYYSMDYWGQGTSVTVSS
VL: DIVMTQSPSSLAMSVGQKVTMSCKSSQSLLNSSNQKNYLAWYQQEPGQSPKLLVSFASTRESGVPDRFTGSGSGTDFTLTISGVQAEDLAVYYCQQHYSIPLTFGAGTKLELK
notes: murine mAb
B16: SC16.26 (antibody, V domains shown)
VH: QIQLVQSGPELKKPGETVKISCKASGYSFTDYSMHWVKQAPGKGLKWMGWINTETVEPTYADDFMGRFAFSLETSASTAFLQINNLENEDTATYFCARFGSYAMDYWGQGTS
VL: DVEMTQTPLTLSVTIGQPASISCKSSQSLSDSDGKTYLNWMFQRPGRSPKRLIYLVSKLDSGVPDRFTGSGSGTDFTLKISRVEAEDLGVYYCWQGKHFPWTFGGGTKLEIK
notes: murine mAb
B17: SC16.23 (antibody, V domains shown)
VH: QVTLKESGPGILQPSQTLSLTCSFSGFSLSTSNTGIGWIRQPSGTGLEWLAHIWWNDDKYYNPSLKSRLTISKETSNNQVFLKITNVDTADTASYFCVQIGRDYSNYAWYFDVWGAGTTVTVSS
VL: QIVLTQSPAIMSASPGEKVTLTCSASSSVSSRYLYWYQQKPGSSPKLWIYSTSNLASGVPARFSGSGSGTSYSLIISSMEAEDAASYFCHQWSNYPLTFGAGTKLELK
notes: murine mAb
B18: SC16.18 (antibody, V domains shown)
VH: EVKLEESGGGLVQPGESMKLSCAASGFTFSDAWMDWVRQSPEKGLEWVAEIRNKANNHATYYAESVKGKFTISRDDSKSRVYLQMNNLRAADTGIYYCTAYSNFAYWGQGTLVTVST
VL: DIQMTQTTSSLSASLGDRVTISCRASQNIINYLNWYQQKPDGTVKLLIYYTSRLHSGVPSRFSGSGSGTDYSLTISNLEPEDIATYYCQQYSERPYTFGGGTKLEIKR
notes: murine mAb
B19: SC16.41 (antibody, V domains shown)
VH: B18 VH with P14F, E16G, A63P, K69R, A91E, A100G, N103S, T117A
VL: B18 VL with N28D, I29V, G68R
notes: murine mAb
B20: SC16.3 (antibody, V domains shown)
VH: QVTLKESGPGILQPSQTLSLTCSFSGFSLSTSGMGVGWIRQPSGKGLEWLAHIWWDDVKRYNPALKSRLTISKDTSSSQVFLKIASVDTADTATYYCARIADYGGDYYAMDYWGQGTSVTVSS
VL: QIVLTQSPAIMSVSLGERVTMTCTASSSVSSSYLHWYQQKPGSSPKLWIYSTSNLASGVPARFSGSGSGTSYFFTISSMEAEDAATYYCHQYHRSPFTFGAGTKLKIR
notes: murine mAb; also called mAb SC16.3
B21: SC16.30 (antibody, V domains shown)
VH: QVTLKESGPGILQPSQTLSLTCSFSGFSLSTSGMGVGWIRQPSGKGLEWLAHIWWDDVKRYKPALKSRLTVSKDTSSNQVFLKIATVDAADTGTYYCARIVDGHPPFAYWGQGTLVTVSA
VL: B20 VL with A9T, V13A, S30T, F73S, F74L, Y92F, A101S, K106E, R108K
notes: murine mAb
B22: SC16.29 (antibody, V domains shown)
VH: QVQLQQSGAELARPGASVKLSCKASGYTFTDQYINWVKQRTGQGLEWIGEIYPGRGNTYYNEKFKGKATLTADKSSSTAYMQLSSLTSEDSAVYFCAREDGGYDDAWFAYWGQGTLVTVSA
VL: QIVLTQSPAIMSASPGEKVTITCSASSSVSYMHWFQQKPGTSPKLWIYTTSNLASGVPARFSGSGSGTSYSLTVSRMEAEDAATYYCQQRSLYPYTFGGGTKVEIK
notes: murine mAb

Molecular target: T1, human DLL3 antigen
Test: ELISA or flow cytometry screen

binding result | Binder
binds | B1
binds | B2
binds | B3
binds | B4
binds | B5
binds | B6
binds | B7
binds | B8
binds | B9
binds | B10
binds | B11
binds | B12
binds | B13
binds | B14
binds | B15
binds | B16
binds | B17
binds | B18
binds | B19
binds | B20
binds | B21
binds | B22
